Patent US20250236683A1 (PHARMA FOODS INTERNATIONAL, published 2025)

B1: PK1-16 (antibody, human IgG1, lambda, V domains shown)
VH: AVTLDESGGGLQTPGGGLSLVCKASGFTFRSYAMYWVRQAPGKGLEWLAGISSSGRYTGYAPAVKGRATISRDNGQSTVRLQLSNLRAEDAGTYYCAKDVYDSWTYANRIDAWGHGTEVIVSS
VL: ALTQPSSVSANPGETVKITCSGGGRRGYYGWYQQKSPGSAPVTVIYNNDERPSNIPSRFSGFKSGSTATLTITGVQAEDEAVYYCGSGDTTTDSGIFGAGTTLTVLG
notes: Chicken/human chimeric IgG1 expressed in 293 cells; also called anti-PAD2 antibody
B2: CK1-10 (antibody, human IgG1, lambda, V domains shown)
VH: AVTLDESGGGLQTPGRALSLVCKASGFTFSDYGMGWMRQAPGKGLEWVGAISNRGSHTYYGAAVKGRATISRDNGQSTVRLQLNNLRAEDTGTYYCAKDAGTCISSYGFSCVSAASIDAWGHGTEVIVSS
VL: ALTQPSSVSANLGGTVKITCSGGSGSYGGSYYYGWYQQKAPGSAPVTLIYDNTNRPSNIPSRFSGSKSGSTATLTITGVQADDEAVYFCGSIDSISDADIFGAGTTLTVLG
notes: as for B1

Target: T1, human PAD2 protein (human, UniProt Q9Y2J8 1-665)
T1 construct: also called Peptidylarginine deiminase 2; Peptidyl arginine deiminase type-2
Experiment: SPR (Biacore 8K), antibody captured on Protein A chip, human PAD2 as analyte, single-cycle, 1:1 model
Protocol: To evaluate the binding affinity of each anti-PAD2 antibody for human PAD2 protein, the dissociation constant (KD) was measured using a surface plasmon resonance system Biacore 8K (Cytiva). Series S Sensor Chip Protein A (Cytiva) was used as the sensor chip. HBS-EP+ buffer was used as the running buffer. The test antibody was prepared at 0.8 μg/mL by using the running buffer to make a ligand solution. The ligand solution was added to the flow cell at a flow rate of 10 μL/min for 60 seconds, and the flow cell without the ligand solution was used as a reference cell. The running buffer was used to prepare human PAD2 protein from several hundred pM to several tens of nM to make each analyte solution. The running buffer was also used as a blank solution. The blank solution or analyte solution was added at a flow rate of 30 μL/min for 120 seconds by using the single-cycle method, and the dissociation time was set to 1200 seconds. The sensorgram of the reference cell was subtracted from the sensorgram of the flow cell with the ligand when the blank solution or analyte solution was added. In addition, the sensorgram when the blank solution was added was subtracted from the sensorgram when the analyte solution was added, and then used for analysis. Biacore™ Insight Evaluation Software (Cytiva) was used to calculate binding parameters while using the 1:1 binding model.

T1 sequence (Q9Y2J8 whole entry): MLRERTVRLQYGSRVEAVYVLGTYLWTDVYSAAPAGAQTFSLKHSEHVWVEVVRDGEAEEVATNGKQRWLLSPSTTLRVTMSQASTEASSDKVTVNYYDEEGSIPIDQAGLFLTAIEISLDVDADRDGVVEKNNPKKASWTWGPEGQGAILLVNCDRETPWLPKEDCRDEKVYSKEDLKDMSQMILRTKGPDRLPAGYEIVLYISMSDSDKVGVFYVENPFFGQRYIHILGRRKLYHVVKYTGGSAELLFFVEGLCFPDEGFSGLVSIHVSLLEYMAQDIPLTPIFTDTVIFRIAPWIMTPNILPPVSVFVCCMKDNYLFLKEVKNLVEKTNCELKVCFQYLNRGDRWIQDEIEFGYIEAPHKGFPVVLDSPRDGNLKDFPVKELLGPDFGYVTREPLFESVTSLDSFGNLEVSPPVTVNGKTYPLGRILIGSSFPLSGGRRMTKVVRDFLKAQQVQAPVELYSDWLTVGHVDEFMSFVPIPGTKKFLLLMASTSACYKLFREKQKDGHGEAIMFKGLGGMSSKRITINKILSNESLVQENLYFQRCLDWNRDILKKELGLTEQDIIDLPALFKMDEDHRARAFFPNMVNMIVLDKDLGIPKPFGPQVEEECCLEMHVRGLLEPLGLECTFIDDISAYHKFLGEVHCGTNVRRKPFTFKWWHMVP

Binder | binding result
B1 | binds
B2 | binds
